These results are taken from publication PMC4914107 (Nucleic Acids Research, 2016).

Some targets named below: RAD51;2XMBP-BRC1-4-DBD (Homo sapiens;Homo sapiens, UniProt Q06609;P51587;P51587 1-339;993-1589;2153-3418, |); RAD51;2XMBP-BRC1-8-DBD (Homo sapiens;Homo sapiens, UniProt Q06609;P51587 1-339;993-3418, |); RAD51;2XMBP-BRC5-8-DBD (Homo sapiens;Homo sapiens, UniProt Q06609;P51587 1-339;1596-3418, |).
What all share (experiment): pull-down
Another series addresses T1, 2XMBP-BRCA2 DBD (Homo sapiens, UniProt P51587 2153-3418).
T1 sequence: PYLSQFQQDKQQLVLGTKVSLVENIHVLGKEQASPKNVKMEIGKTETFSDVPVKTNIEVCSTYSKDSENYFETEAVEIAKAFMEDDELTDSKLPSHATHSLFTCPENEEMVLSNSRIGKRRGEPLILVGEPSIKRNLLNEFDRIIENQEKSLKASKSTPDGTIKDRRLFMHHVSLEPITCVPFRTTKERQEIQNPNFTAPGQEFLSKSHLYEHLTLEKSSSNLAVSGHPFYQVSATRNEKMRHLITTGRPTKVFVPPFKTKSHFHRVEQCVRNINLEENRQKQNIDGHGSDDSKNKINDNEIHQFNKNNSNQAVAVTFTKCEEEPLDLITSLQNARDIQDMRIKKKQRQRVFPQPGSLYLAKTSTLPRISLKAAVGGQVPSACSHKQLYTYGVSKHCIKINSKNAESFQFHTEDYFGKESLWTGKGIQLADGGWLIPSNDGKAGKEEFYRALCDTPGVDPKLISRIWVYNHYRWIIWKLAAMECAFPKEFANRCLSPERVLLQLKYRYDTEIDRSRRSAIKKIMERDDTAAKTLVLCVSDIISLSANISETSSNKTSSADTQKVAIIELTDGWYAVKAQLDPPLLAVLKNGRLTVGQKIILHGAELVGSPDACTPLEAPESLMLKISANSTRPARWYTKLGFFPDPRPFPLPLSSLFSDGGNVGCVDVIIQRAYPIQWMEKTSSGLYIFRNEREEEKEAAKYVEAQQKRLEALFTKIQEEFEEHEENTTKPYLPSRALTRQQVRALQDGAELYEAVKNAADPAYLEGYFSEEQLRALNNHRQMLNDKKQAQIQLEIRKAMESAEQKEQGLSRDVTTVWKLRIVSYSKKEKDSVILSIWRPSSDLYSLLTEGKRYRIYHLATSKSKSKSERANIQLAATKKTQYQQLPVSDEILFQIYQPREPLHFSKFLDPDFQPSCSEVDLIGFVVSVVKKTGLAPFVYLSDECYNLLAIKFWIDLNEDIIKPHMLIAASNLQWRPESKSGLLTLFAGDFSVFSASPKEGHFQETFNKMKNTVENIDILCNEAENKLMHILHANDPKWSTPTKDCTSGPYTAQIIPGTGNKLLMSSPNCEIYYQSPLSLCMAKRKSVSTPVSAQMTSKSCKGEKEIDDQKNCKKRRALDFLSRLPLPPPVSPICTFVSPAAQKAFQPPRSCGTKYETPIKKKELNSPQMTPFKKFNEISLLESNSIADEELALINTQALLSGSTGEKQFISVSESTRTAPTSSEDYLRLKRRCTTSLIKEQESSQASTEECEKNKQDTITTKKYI

The next series deals with T2, RAD51 (purified) (UniProt Q06609 1-339).
T2 sequence (looked up): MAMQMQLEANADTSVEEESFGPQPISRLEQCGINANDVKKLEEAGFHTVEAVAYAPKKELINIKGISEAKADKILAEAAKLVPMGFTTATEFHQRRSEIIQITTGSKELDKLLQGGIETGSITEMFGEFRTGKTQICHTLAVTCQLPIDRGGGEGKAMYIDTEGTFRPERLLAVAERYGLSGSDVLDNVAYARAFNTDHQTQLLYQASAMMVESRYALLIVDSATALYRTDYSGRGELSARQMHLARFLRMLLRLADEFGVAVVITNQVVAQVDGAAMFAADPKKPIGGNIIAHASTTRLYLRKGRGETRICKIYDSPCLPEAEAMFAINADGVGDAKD

B1: biotinylated ssDNA RJ-167-mer (ssDNA)
DNA: CTGCTTTATCAAGATAATTTTTCGACTCATCAGAAATATCCGTTTCCTATATTTATTCCTATTATGTTTTATTCATTTACTTATTCTTTATGTTCATTTTTTATATCCTTTACTTTATTTTCTCTGTTTATTCATTTACTTATTTTGTATTATCCTTATCTTATTTA
For the molecule B1, the binding result in the series with RAD51;2XMBP-BRC1-4-DBD, with 2XMBP-BRCA2 DBD, in the series with RAD51;2XMBP-BRC1-8-DBD and with RAD51;2XMBP-BRC5-8-DBD was “binds” each time.

B2: 2XMBP-BRC1–4-DBD (domain or fragment, human)
chain: WAGLLGPISNHSFGGSFRTASNKEIKLSEHNIKKSKMFFKDIEEQYPTSLACVEIVNTLALDNQKKLSKPQSINTVSAHLQSSVVVSDCKNSHITPQMLFSKQDFNSNHNLTPSQKAEITELSTILEESGSQFEFTQFRKPSYILQKSTFEVPENQMTILKTTSEECRDADLHVIMNAPSIGQVDSSKQFEGTVEIKRKFAGLLKNDCNKSASGYLTDENEVGFRGFYSAHGTKLNVSTEALQKAVKLFSDIENISEETSAEVHPISLSSSKCHDSVVSMFKIENHNDKTVSEKNNKCQLILQNNIEMTTGTFVEEITENYKRNTENEDNKYTAASRNSHNLEFDGSDSSKNDTVCIHKDETDLLFTDQHNICLKLSGQFMKEGNTQIKEDLSDLTFLEVAKAQEACHGNTSNKEQLTATKTEQNIKDFETSDTFFQTASGKNISVAKESFNKIVNFFDQKPEELHNFSLNSELHSDIRKNKMDILSYEETDIVKHKILKESVPVGTGNQLVTFQGQPERDEKIKEPTLLGFHTASGKKVKIAKESLDKVKNLFDEKEQGTSEITSFSHQWAKTLKYREACKDLELACETIEITAAPGGGSPYLSQFQQDKQQLVLGTKVSLVENIHVLGKEQASPKNVKMEIGKTETFSDVPVKTNIEVCSTYSKDSENYFETEAVEIAKAFMEDDELTDSKLPSHATHSLFTCPENEEMVLSNSRIGKRRGEPLILVGEPSIKRNLLNEFDRIIENQEKSLKASKSTPDGTIKDRRLFMHHVSLEPITCVPFRTTKERQEIQNPNFTAPGQEFLSKSHLYEHLTLEKSSSNLAVSGHPFYQVSATRNEKMRHLITTGRPTKVFVPPFKTKSHFHRVEQCVRNINLEENRQKQNIDGHGSDDSKNKINDNEIHQFNKNNSNQAVAVTFTKCEEEPLDLITSLQNARDIQDMRIKKKQRQRVFPQPGSLYLAKTSTLPRISLKAAVGGQVPSACSHKQLYTYGVSKHCIKINSKNAESFQFHTEDYFGKESLWTGKGIQLADGGWLIPSNDGKAGKEEFYRALCDTPGVDPKLISRIWVYNHYRWIIWKLAAMECAFPKEFANRCLSPERVLLQLKYRYDTEIDRSRRSAIKKIMERDDTAAKTLVLCVSDIISLSANISETSSNKTSSADTQKVAIIELTDGWYAVKAQLDPPLLAVLKNGRLTVGQKIILHGAELVGSPDACTPLEAPESLMLKISANSTRPARWYTKLGFFPDPRPFPLPLSSLFSDGGNVGCVDVIIQRAYPIQWMEKTSSGLYIFRNEREEEKEAAKYVEAQQKRLEALFTKIQEEFEEHEENTTKPYLPSRALTRQQVRALQDGAELYEAVKNAADPAYLEGYFSEEQLRALNNHRQMLNDKKQAQIQLEIRKAMESAEQKEQGLSRDVTTVWKLRIVSYSKKEKDSVILSIWRPSSDLYSLLTEGKRYRIYHLATSKSKSKSERANIQLAATKKTQYQQLPVSDEILFQIYQPREPLHFSKFLDPDFQPSCSEVDLIGFVVSVVKKTGLAPFVYLSDECYNLLAIKFWIDLNEDIIKPHMLIAASNLQWRPESKSGLLTLFAGDFSVFSASPKEGHFQETFNKMKNTVENIDILCNEAENKLMHILHANDPKWSTPTKDCTSGPYTAQIIPGTGNKLLMSSPNCEIYYQSPLSLCMAKRKSVSTPVSAQMTSKSCKGEKEIDDQKNCKKRRALDFLSRLPLPPPVSPICTFVSPAAQKAFQPPRSCGTKYETPIKKKELNSPQMTPFKKFNEISLLESNSIADEELALINTQALLSGSTGEKQFISVSESTRTAPTSSEDYLRLKRRCTTSLIKEQESSQASTEECEKNKQDTITTKKYI
B2: in the series with RAD51 (purified), the binding result is listed as “binds”.
